Data on 2 molecules can be found in paper PMC7959386 (2021).

Assay [1] has as its target T1, SARS-CoV-2 Spike receptor-binding domain (residues 330-541) (SARS-CoV-2, UniProt P0DTC2 330-541). As to the kind of experiment: BLI.
Assay [2] has as its target T1, SARS-CoV-2 Spike receptor-binding …. In words: BLI. The source holds these as a separate data set.

B1: MR17 (synthetic nanobody, sybody) (VHH)
VHH: QVQLVESGGGLVQAGGSLRLSCAASGFPVEVWRMEWYRQAPGKEREGVAAIESYGHGTRYADSVKGRFTISRDNAKNTVYLQMNSLKPEDTAVYYCNVKDDGQLAYHYDYWGQGTQVTVSA
For B1, the koff in assay [1] was 0.0097 s⁻¹. The molecule further showed a Kd in assay [2] of 0.0837 µM.

B2: MR6 (synthetic nanobody, sybody) (VHH)
VHH: QVQLVESGGGLVQAGGSLRLSCAASGFPVEDTWMEWYRQAPGKEREWVAAITSWGFKTYYADSVKGRFTISRDNAKNTVYLQMNSLKPEDTAVYYCNVKDEGDTSASYDYWGQGTQVTVSS
In assay [1], B2 came in with a koff of 0.0072 s⁻¹.

For orientation: koff means a measure of how fast the partners let go of each other. Usually Kd stands for the concentration at which binding is half-saturated. The low end stands for a tighter complex, the high end for a looser complex.
